The values below come from the DeepSol protein solubility set.

This data set is described as follows: soluble on expression in E. coli; label from the status in PepcDB or PDB records.
Consider “MKRGEELPPLEIEVTRTLIVAGAIASRDYQDVHHDAESARRRGSPDIFMNILTTNGLVGRYITDHFGPGAVLRKVAIRLGAPNYPGDTMVLTGTVVEVEGDTATVKVIGANGIGTHVRGTVTVTVPPGSASLEHHHHHH”, for which the “soluble on expression in E. coli” value is “not soluble”.

For the sequence “MSLDFSHEFFGSLDPQALAHPDSIKWQHYGEGVIPMWIADMDFPVAPPILRALEDRLTRGLGYPLGRDDRLIADLQTKWASQGLTDVPADGIHFTPSVVPGLYAGVHGLTEPGDRVVTMTPIYHPFHLAINDLGREVAAAPLREGDTRWEIDWDALERAAEGARLLMLCHPHNPCGRVWDADELARLRELVLAHDLYVISDELHADLRFTDAPFEAFAADPRVRDRTLTVTGPCKAFNTAGLGIGVMVTHDPELLARVQRRVAGLGGHPSALSFTMWRVALEDGGPWLARTVEYLRGNRDFMTAFLRERLPWVRFTVPEATYLAWLDLREHPEAGRIQEFLLEEAKVAVHNGPTFAPGEQGAAYQGFIRVNFATSRAILTEALERMARALDTRQEGHHHHHH”, the “soluble on expression in E. coli” value was “not soluble”.

As for “MGISSSAPESLGFDTVLPPHLRQHSHPPAGISPKRFLCRDLWPAELPSPAVSSAVSGPTWPEGISAPVFGKQTHVPQRTGSQDCHSCDPTLPEWERKIPP”, the “soluble on expression in E. coli” value is on record as “not soluble”.

With “MSLEQPGQPPAHSLVSLRGSGHHVAIVDRSDGRLLGTIDSARAASQVHPGAVYLHQGETFVIEELDDQVALAVPDQPDYQTFARSTTDIRIVGEVDKVCNPAPGLWVSNLVVEVTDRVVGYTMKASDGSVLAMVPLQMPPQTLVTRAVAYTVDPLVLDSLGITDVPGALHAAEHAAIGLLPLIATCDRWDIGGVSTAEHPDTGLPTVFVYDGHPGGAGFADCGYERFPEWVATTFEAIRSCQCESGCPSCVQSPKCGNGNDPLSKEGAIALLGAMCTMLGVTEGHHHHHH”, the “soluble on expression in E. coli” value was “not soluble”.

As to “MKFLLAVFLLAVCSLGESKKPKAQKVIYVQKVVPPQKQLSEYDLCKEQCRIESETQSNKERVELLKQEIDRAEQLLAEHNKHVDAPEIAPETYMEAGQVPPMRKASRYDHLKMAANKIVESTSELKNAVTGGGDN”, the “soluble on expression in E. coli” value is “not soluble”.

On to “MIMNIFLIKEADLVEAAEIISASFKNYEVMRYLFNDSGNDHEAHITEFFLAFYQFGLANNWPCYGVRVNEQWVAVALGCNSSEQEIIKGSDDALTEFYKKISPQACCRIEQYDQQADAAHPSKAHFFIDSIGTHPDHQGKGYAKALILKFQELSKSDVHSTGVGLNTESDNNINFYQHLGYQVKAQQKIGSLTSWSLFRTDD”, for which the “soluble on expression in E. coli” value is given as “not soluble”.

For “MAHHHHHHMRSNCAPLGRVKIRILDLTVLSEDASDFVYDGLYVVSRLGPDAQRTNILCNGADSAGGRCWNEVFMFHFEGNPPEFRETAPTLSKSGLDVTVGQHISTYHDGPSLGNPSREYILPQQPHEVKRGLLAPPWMGGSCALPAITLELWRYSLSSDDCLARYQFCIPLEMSSGNIADRVVRLASASSYSVQFALRIRVALSGYDGGALGFENYMPAMSPANLPVLWRH”, the “soluble on expression in E. coli” value is recorded as “not soluble”.

For the sequence “MAHHHHHHMVQVVHRHGERSALINDNKTEICGTLYPCGELTGERVKMVRAIGEFARSRYNDLSLVESPLCPSTQYNSSLVYTRPTHTQRTIQSATAFLHSLFQDDYFYPVAYSVNRTTDMLLSTDAVPSVVGRSWLDNQAVYPGLMEVNAAWFKYVFSWNHTSKLDLTQGSASQNLEQAMLANINAPPRLSPSYNMFHYSAHDTTVTPFAATFGDQGNTTMHPPFAVTSFVALLQDTADASGWYVRLIRSNPVKVASGTYVFRQTGIAVHCFDATGNRYRVSTGICPLDDFRRMVDHSRPAVADGHSAMTHAQYSNMGSPRTIADNKLVPLRCWIYRYACPSKSCPGSYILSAVDHQCYPQTDIPNSSSSEGTSSSDVSSFKKPANWMPRVSSPEKSRHIAADILRGVTNGVTVGAAVRKHDEYRRHC”, the “soluble on expression in E. coli” value is given as “not soluble”.

Take “MFVVAVANTKGGCGKTTLATHLAASFACRGYATGLADLDRQKSALGWLKRRPEGAAPIQGINLAREEDIPEGIERLVVDAAAAMDKDVVKDIVRRADLVVVPVLPGVFDEDGTARFVGHLESLKSIRKNRRDVAFVANRVRLNTRALTRLGGFLEELSFPVIARLRDTQHYTAAAAEGLSLFDLPGGRAADYRAEWTPLLDFIEIRVRG”: the “soluble on expression in E. coli” value was “soluble”.

For “MSLYPEKRDGFSRTGKFEVEGRTVQTPAILEVGEIPEWDFGLAPTSLKFISEELYSRLRPINEEVEILTSLHLLSPRQLVQVFEDLSKEGVSPKPLYAASSALPSNVSLLIYLGADLVDNVLAIAKAYSGIYFLGEVEVEISKLRRLPCNCIHCRNRVVDEVENLLETTAKHNTEMLRMEVEKCRRLILNEELRNYVEGKVKLNPEFTAALRLSDSLRNHSTFPRFRKSRCNFSALESSSRFEVRYFFERALECYKPFSDTVLLLPCTARKPYLTSRTHRALRSKVKVNVNEIIISSPLVVPREFELLYPAVNYDTPVTGHWSEEEVSFVAGWLKRFIEKGGFRKVVAHVTGGYRKVVERVEDEVEAEVVYTAEKDVLSDESIERLKQEIESKGKVDLYRRILEHMLSYQFGITWSGKVAGRYPELELLEGKKRLARVDRIYGMLDIYEKIAAYLLEKNIYTVEIGDFEVKGTIFAGGVLRADEKIRPNDVVVFHNSRIFGVGLAAMSGKEMAGSEKGIAINVKRKFSEGHHHHHH”, the “soluble on expression in E. coli” value is on record as “soluble”.

As to “MGSDKIHHHHHHGASVQDLSNTKDAIVESETTLAENNNEYSNKNSLFYSDISSYEIFTDVNSEAALKNLYYNIDEFIDSDSSDVIVKGNIIEIEYVYIDGCSYSVLTVDVERAYKGEVQETITVYEDGGYTRLSDEKEQIEAHADLSQYTEEEMENLLINHTFMGAEHSNVGDTVILFLKTNEGSILGDSYRINCSVFGRYTLNKDSYIRPEFIVENDNPEKITTYSNMDTFEFSVSKSMLEDKLSQQ”, the “soluble on expression in E. coli” value was “not soluble”.

For “MSRTIMLIPISAGVGLTSVSMGLLRAMERKGVSVSFYKPIAQPRTGDDQPDLTSTVMSRNSDIKIGQPMSMSAAETLIGSEKMDVLLETVVERYNQINKDAEVTLIEGLVPTRKHPFANQVNAEIANTLGAEIVFVATPGTDNPTQLKERIEVACSNFGGTKNKSISGVIINKLNAPVDEAGRTRPDLSEIFDDADHAKQANLEVMQIFNTSPIRVLGCVPWSIDLIATRAIDMAKHLKAE”, the “soluble on expression in E. coli” value was “not soluble”.

On to “GMNNSLAFNHDTLPQKVMFGYGKSSAFLKQEVERRGSAKVMVIAGEREMSIAHKVASEIEVAIWHDEVVMHVPIEVAERARAVATDNEIDLLVCVGGGSTIGLAKAIAMTTALPIVAIPTTYAGSEATNVWGLTEAARKTTGVDLKVLPETVIYDSELTMSLPVEMSVASGLNGLAHCIDSLWGPNADPINAVLAAEGIRALNQGLPKIVANPHSIEGRDEALYGAYLAAVSFASAGSGLHHKICHTLGGTFNLPHAQTHATVLPYVLAFNAGDAPEAERRAAAAFGTDTALEGLQRLRLSVNAPKRLSDYGFEASGIAEAVDVTLEKVPANNPRPVTRENLSRLLEAALNGEDPAVLSAVLSN”, for which the “soluble on expression in E. coli” value is “soluble”.

Take “MAHHHHHHMGTLEAGQQGPGSMSKLTVVASPLAPEAVGAYSQAIICNGMVYCSGQIGLDRKTGDFAGKTIEEQSKQVMTNLKYVLEEAGSSMDKVVKTTCLLADIKDFGVFNGIYAEAFGNHKPARACFAAAALPKGALVEVECIATL”: the “soluble on expression in E. coli” value is reported as “soluble”.

“MSLEPTAPSLTEEDLTEVKKDALENLRVYLCEKIIAERHFDHLRAKKILSREDTEEISCRTSSRKRAGKMLDYLQENPKGLDTLVESIRREKTQNFLIQKITDEVLKLRNIKLEHLKGLKCSSCEPFPDGATNNLSRSNSDESNFSEKLRASTVMYHPEGESSTTPFFSTNSSLNLPVLEVGRTENTIFSSTTLPRPGDPGAPPLPPDLQLEEEGTCANSSEMFLPLRSRTVSREGHHHHHH”: the “soluble on expression in E. coli” value is reported as “not soluble”.

Consider “MMTMMATFLDVIDQKARSHYDEGKGLALRSLDPEADAAQLQQWFSMDYARFWSMQDSSVHQVRDFYTALCSSGHAGAWLGLHHGRAAFLVECYDPARDQVGEHYCVRPGDLGMHLLIAPPTEHIPGFSRAVFALVMRFMFDRLHAARVVVEPDVNNTKIHALNLSMGFVYAGLARFREKTASLAFCTRAQFEQAQRQELTQ”, for which the “soluble on expression in E. coli” value is “not soluble”.

For “MGSDKIHHHHHHMKFSINRQKTIEIIGEYSNILKDNPVKPSLAGLFIQAKNNQVVFKGANTEIELIRYANCEIESEGQVLIKPALLLEYIKLLEGENINFEKKDGYLIVNNAEFSILDDNTYPELTEIIPIVIASENTVKFTMSLEKVKFLTNSSASTDTLFNSIKMIFKDNVLELVSTDSFRLIYMKKELNNMINKDVLVPGDSIAVLYKIFKDLDEEFSLAASDDKLIVTWKDAYFTCKLLSLSFPDFRPLINNTNHDKRFEFNRDELNLALKKVISVTKNSSDSKNVATFNFKGNQLLISGVSANAKINQKVNMIKTGEDLKLGMNCKYIKDFIDNVDKNIIIDATNSSSMLRFMEEGNENYIYLIMPVNIRV”, the “soluble on expression in E. coli” value is recorded as “not soluble”.

With “GPLGSALEIAEQLTLLDHLVFKSIPYEEFFGQGWMKAEKYERTPYIMKTTKHFNHVSNFIASEIIRNEDISARASAIEKWVAVADICRCLHNYNAVLEITSSINRSAIFRLKKTWLKVSKQTKSLLDKLQKLVSSDGRFKNLRESLRNCDPPCVPYLGMYLTDLVFIEEGTPNYTEDGLVNFSKMRMISHIIREIRQFQQTTYKIDPQPKVIQYLLDESFMLDEESLYESSLLIEPKLPT”, the “soluble on expression in E. coli” value is recorded as “soluble”.

Take “MGRHGKRGLNMTKQNSNTDRRSLQDCGVFSSAEYHSVGLSGGKDSSALLLLMLEKGMPIDSVIFADTGMDFPEMAAHIAKLDALLYRERGIHITTLRHPHGFEWLMFDEPKRKPSCLKNRARLGVPPYGNGWPGIKVRWCTGQLKTHLITKEVNRLKKEKNALHYIGIAADEAKRCKDAPNHRYPLVEWGVTEAQALQICYDRGFDFGGLYKIYHRASCWCCPLQRIGELRKLRQHHPELWARLWDMDNRARAQFGAGPLGQFKERWSIEQLDARFSREEKEERA”: the “soluble on expression in E. coli” value is recorded as “not soluble”.

On to “MGHHHHHHSHMLFSRIFMAGAPKFIKQLLLDLRNEIYCTILIVGDFNAPLTALDRSSRQKVHKETMGLHCILEQMDLTYIYRTFHPTTAEYTLFSSAHGTFFKIDHIIGHENKSQ”, for which the “soluble on expression in E. coli” value is given as “not soluble”.

With “MSELMQAILDSEEKHDLRGFISELRQQDKNYLLRNDILNVYAEYCSKCQKPETSYKFSNLSKLIYYTQEIIQEDSNFCFIIRPKIAAQEVYRLTADLDVEPMTVQELLDLRDRLVNKFHPYEGDILELDFGPFYDYTPTIRDPKNIGKGVQYLNRYLSSKLFQDSQQWLESLFNFLRLHNYNGIQLLINHQIQSQQQLSQQVKNALNFVSDRPNDEPYEQFRLQLQTMGFEPGWGNTASRVRDTLNILDELIDSPDPQTLEAFISRIPMIFRIVLVSAHGWFGQEGVLGRPDTGGQVVYVLDQAKNLEKQLQEDAILAGLEVLNVQPKVIILTRLIPNSDGTLCNQRLEKVYGTENAWILRVPLREFNPKMTQNWISRFEFWPYLETFAIDSERELLAEFQGRPDLIVGNYTDGNLVAFLLTRRMKVTQCNIAHALEKSKYLFSNLYWQDLEEKYHFSLQFTADLIAMNAANFVISSTYQEIVGTPDSIGQYESYKCFTMPELYHVVNGIELFSPKFNVVPPGVNENSYFPYTQTQNRIESDRDRLEEMLFTLEHHHHHH”, the “soluble on expression in E. coli” value is reported as “not soluble”.

For the sequence “MYFIAGMFDGKEKVNREQPPMPTTDGVEYPRAASWAAGNCANVLNDDKGKQLFRVFLFQSLAEENLAFLEAMEKLKKMKISDEKVAYAKEILETYQGSINLSSSSMKSLRNAVASETLDMEEFAPAIKEVRRLLENDQFPRFRRSELYLEYLEELLPRSYAEKWAQSFEGLLGNHVGRHHFRIFLRSIHAEENLRFWEAVVEFRSSRHKANAMNNLGKVILSTYLAEGTTNEVFLPFGVRQVIERRIQDNQIDITLFDEAIKHVEQVLRNDPYVRFLQSSQYIDLLSKLK”, the “soluble on expression in E. coli” value is listed as “not soluble”.
